Measured values published in the domain aggregation screens of Martell et al. (2025).

Assay: soluble fraction after stress (log2 fold change); higher = more stays soluble; pooled small domains, quantitative proteomics
Conditions: stress: 50 degC
Outline: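 Pooled custom libraries of small protein domains were each held under stress at 50°C. The read-out, high-throughput quantitative proteomics, tracked how much of each protein stayed soluble. This is reported as a base-two log fold change used to indicate aggregation propensity. Higher values mean more protein remains in solution.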

Row | Sequence | soluble fraction (log2)
1 | HMRSFGRLRRRDSGRWEAAYVGPDARLYRAPATFEAKDDAIAWLSAERRMIELDTWIKPHDRASR | -1.11
2 | HMREIKSNEILLEVENLKNSEFFNDINFNIKKGEIVGFSGLIGAGRTELALTLFGYYKAESGKVIQ | 0.061
3 | HMNVEALIGREGRVTDKIEANGYGRVKVDGDSWKAKSANGAEIRQNTDVRILSIDSVIITVEP | -0.379
4 | HMAKTALEQAQAMVAAYVAAEQQILLGKEVRMGGPGIDRWLRFEDLQEVRAGRKEWESTVTRLQNTAA | -0.404
5 | HMVITPESVKEQVLAIISKSPAQGFNYKQISKRLNINDPSERKMVSDILRELSESGTIEEINKGKYRAKV | -0.0556
6 | HMTPPPTNSREWMEWGISHGLDANLDRSGQVVFYTDDRVVADAAELSGADLERDNMGQFVIYTGAYDKG | 0.0665
7 | HMEARNDWAQQSRADAEFGGEKLDENLAVAKKAVEALASPELKTLLEQSGLGNHPEIIRLFYRAGRSLS | 0.132
8 | HMNRPYETLFTGLTTDEASAIVGKLEEYGAADYKIEGDTIKVPAAQEPDLKAKLLLDGYPKS | 0.105
9 | HMPPLKYLKVKSYLEAVAVKAESAMRMPTVRELMNQFNVSLATVNRALSELENDGVIVRRQGSGIVAAG | 0.147
10 | HMNEYHRNISDEEFVRDIKETAIKLKKETLTGVEYSQNGKYHASTIIHRFGSWKKALELAELNTK | -0.056
11 | HMEFSYLEEIGHEKGDLIKGLQLIQQKEGYVSDDAVRAVAENFGMSPAEVEGVLTFYAQFKR | -0.061
12 | HMTNVDELIGKEAVVVKEIRPYTTGEVKLDGKVWRAMSESKQVYKVDEIVTVLRIEGVTMII | -0.419
13 | HMTAFAGLTPRERDLLELIAQGRDNAQIAATLGVSDKTVRNHITHIFAKLEVETRAQAIVLARNAGFGRA | -0.356
14 | HMIQNEITLMLQVNGKLRGQIQVPSDASKEQIEQLAKDSEAAQKALAGASPKKIIVVPGRLVNIV | -0.092
15 | HMDASSTGFLGKHVQIVGLVSQPHLNGRRGVASRFDSNRRRYLVRLDEIDGHAEVVAFRPDNLVLSNLL | -0.573
16 | HMNQTGQYENAAKRFNQLITIDSSDKRAYLQLGISNYNLGNKEKADSLFNIIRNSKDKLLIEELDNFLT | 0.0481
17 | HMEEDDGVDFHERLTELNDEQVYYLINTEPAKVIALALDQLGQKRKINIMNRFNPDMKHSIIMELGKL | -0.516
18 | HMSLGTDVVPDFTGKGIKEAKTEFAAYSEGELYIIGEGEKVKEQFPLPGEKVNKNSDLILYV | 0.101
19 | HMDVTSLDMLRFLMDQHGLRQQDLSELGSQGVVSEILAGKRELNLRHIGALARRFKVPPEVFLPA | -0.631
20 | HMGVAAPMPGTITDVRVKVGDRVQPRTVVMMLEAMKMENEIFAGRAGVVSQVAVEKGASVNTGDLLISIDP | 0.129
21 | HMASAEDDLTRRARKLLTTSSMLKTLQPDTGERLQWLPQVVRLLAEGVEAPRIVVLIRRAMESG | -1.04
22 | HMAQILEPSVALKKLLELKQAGFEDETLVGWIRKVEFTRPLTPDDLLEWKGAGISQAVIRAAM | -0.0938
23 | HMGNFGDLLKILLDEKELSMGELSKKSGIDKSTISRIANNKQKPNINHLEKMAIHLNINLEELLKASGYEF | -0.364
24 | HMNNYNDSVQKIINYIADNLNENLSVRKLADKMPMSVSHFNRVFQKYTGDSPYAYVMAMRIKKAKYL | 0.0162
25 | HMWQPIKLDRGDWQNSLQVGDRVFVRGIPRPVEILSAVDEENNIEVLMGTMRAKIPVYQLDKPAENFIDTT | -0.15
26 | HMFAATGTVNTEGSSLRLRAEASTSSSVLKQLSHGTQVDVLSGLVDGWYQVSYKGTTGYVSGEYLTVTE | -0.451
27 | HMTLDDSIALGRSLLDKGLMDFGTNLANLAEDKLRDFLSQQRYENLDDLFADIARGNRLPMFTAQQLLS | -0.187
28 | HMKEPFETMPDVMDAKQIAEALQISKAGAYNLLNSPDFPTLRIGGRKLVMKNELVEWLKSHTNRK | 0.274

Row | Sequence | soluble fraction (log2)
29 | HMESRTQVYDFYKDLFREKRRPLRAEEMLSALKSQRGIVGVNQYQIIEQHGIVRLSGSGRSALYWDTDLGS | -2.74
30 | HMTLALKQGSTGSTVKQVQQKLKNWGYYSGAVDGIFGSGTRKAVVLFQKRNKLTADGIVGSKTLEALGIYV | -1.05
31 | HMNAAYDEELDFIFSLSEKGKWEEAEAEIGLLLQKHPEDATLQRIGEWVTTQKILLRQQAVEDRIRS | -0.0763
32 | HMDINVDILPLLKTMTDTLRKVIELDIPFLKDARVQRVNSLDELLLRADITTAEKFRKVFEAYQIEADFGK | -0.804
33 | HMDIEFSDELRTFIDEWSKKEGGLVMMLHRIQNEYGFIPRTAAEKLSLISGIPLARIYGVITFYHFFKT | -0.461
34 | HMHAPLEVGSVVRIEGQKALGTILSISDREAIVALGALKTTIPLKRLHGVSPAEAQRHLRKTTPAQAVR | 0.0521
35 | HMDIADKLTKREFEIFIAIAMNKSRFDIANELGLSAKTVSNGLTVIKRKLNAVPSQFSAIAAKHGYIG | -2.66
36 | HMPASGISSEIIYDGILIEENLRQLKKDKAWLMDQLKKKGISSVSEVFLATLNKGGSLYIDKY | -0.0117
37 | HMQKFLEATGENRDAAVENALEQLGLERDDVSVEVLEIGKKGFLGIGATPARVRVTYEAPDI | -0.0313
38 | HMGFLTGNTQGEVNRKTKNQMVNIFLPTTPNPTSGFLLFVPKKDILRLTMTVEEGIKMIISAGMLTPS | -0.173
39 | HMGGWEEGVYVVREGDTLSDIVHDAVKGTEIHPDFILNAIVRVNPSAFVRGNPSWMLAGKKIK | -0.0469
40 | HMIMLDRILKIMDYNKFTPSEFADVLEIDRSRLSHILNGRNKPSLEIVMKILEKFPEISSDWLLFGSGNML | -1.49
41 | HMGELTSILVATKQIEPGETLSSSNTQVKSWISDLIPEGAITNPESVMGRTVSSVIGVGMPVVSLHLR | 0.0954
42 | HMDNQYGVYSDEKNNVEIHWKRIDHPSVAKDHLDIEAYQNGKRVDINNQQADHYRYLINQEMNE | 0.0952
43 | HMKTELAYDFHSRIRDARIREGLSQVDLAKRMNEKIAVIQKAENGIRPTDSLIAKFSKALSVELYVE | -1.26
44 | HMDEPADVAIFDGFRQMSEDELKKLYESLNLAMTFKDFLHIQNYFKNEENREPSVTEIRVLDTYWSDH | 0.174
45 | HMTHRRLELTLDAIDERLDRALTAAVPELSRMQWQRLIREGLVTVDGERARPSYRIQGGETLVALVPEV | -0.234
46 | HMNMMIIHVNGEKYSFQEPITISELILKLELDSRKIAIEYNLEILPRSLFEITSIKNGDKIEIVHFI | -2.37
47 | HMGDEVAVTEILVKVGDTVEADQSLLTVEGDKASMEVPAPFAGVVKAIQVQLGDKVVTGSPIMLFEV | -0.00831
48 | HMEDVSTLAVKQRIDDLVKQENPAKPLSDSDIVARLKTDGIYIARRTVAKYRMELNIPSSSARKRAQQFS | -0.833
49 | HMSASSDATRQRVLRAAEQLFGAKGVENVSLREMTTLAGVNLAAVNYHFGSKDALAEAVFEALSER | 0.41
50 | HMKRDRLYGITIYLLNHGRTSAKTLAEYFEVSVRTIQRDMDALSMAKIPIIAYPGSDGGYEIQEGYRL | -3.1
51 | HMEWNREQLEQIVLQHIRKHGFITRATYTELTGRLKNSALADLKSFAAEGIIKRVGRGNQMHFIVPL | -2.42
52 | HMERYSVQVGSFRNMRYAERLKQELQGEDFPAYIEKSGEFNRVRVGKGLTLEEATQLEQVLRKSGYQTVIV | -0.395
53 | HMKEGTIPPVVNRTLSDAEFVLKSYGYELGRVSEQHSDMPKDIVIKQSPEAGTVADPGTRVDVVVSIGKA | 0.404
54 | HMVAMLDASYRGVMQTISTLLAQGNTERAYDEAVNARGQMSKQQWNNLANLIWERTGQKIDSGVSYK | 0.139
55 | HMLASDYEEELSVLIKMSHKIAAGDDSLMDDFNDRVTMFESSYPINKATKDLTPVLERVNKFQT | -0.346
